Data reported in paper doi:10.1101/2025.09.30.679617.
pKd: −log10 of the molar value.

Biological target: PfCSP junctional peptide 21 (Plasmodium falciparum) (UniProt Q7K740)
Assay: BLI

In the case of CIS43 mAb, the pKd was 7.68.
